Test results as given in patent publication US20090215197A1, “TARGET SUBSTANCE CAPTURING MOLECULE” (CANON KABUSHIKI KAISHA, published 2009).

B1: MBP-bound VHH-Jun/MBP-bound ankyrine Fos hetero dimer (other)
chain 1: PWQVQLQESGPGLLKPSETLFLTCTVSGFSISGGYYWGWFRQPPGKEREWIGSVYHSGSTYYNKSLESRVTISIHTSESQISLKLNSVTAADTAVYSCARYRTAHPLWGQGTMVTVSSEFGGGGSGGGGSGGGGSRIARLEEKVKTLKAQNSELASTANMLREQVAQLKQKVMNYFGC
chain 2: PWNAADNTGTTPLHLAAYSGHLEIVEVLLKHGADVDASDVFGYTPLHLAAYWGHLEIVEVLLKNGADVNAMDSDGMTPLHLAAKWGYLEIVEVLLKHGADVNAQDKFGKTAFDISIDNGNEDLAEILQEFGGGGSGGGGSGGGGSLTDTLQAETDQLEDKKSALQC
B2: MBP-bound VHH-Jun fusion protein and MBP-bound peptide-Fos fusion protein hetero dimer (other)
chain 1: B1 chain 1
chain 2: TPIHRRRQFNTGEFGGGGSGGGGSGGGGSLTDTLQAETDQLEDKKSALQTEIANLLKEKEKLEFILAAYRLC
B3: MBP bound antibody domain (VHH) (VHH)
VHH: QVQLQESGPGLLKPSETLFLTCTVSGFSISGGYYWGWFRQPPGKEREWIGSVYHSGSTYYNKSLESRVTISIHTSESQISLKLNSVTAADTAVYSCARYRTAHPLWGQGTMVTVSS

Key:
[1] = target: T1, Maltose-binding protein (MBP) (Escherichia coli (strain K12), UniProt P0AEX9 = MBP); assay: SPR (BIAcore), MBP immobilized on CM5 chip, 0.1% Tween 20/PBS, 25 C
[2] = target: T1, Maltose-binding protein (MBP); assay: SPR (BIAcore), same manner as in Example 10 (MBP immobilized on CM5 chip)
Experimental: In comparison with the single stranded MBP-bound VHH/MBP-bound ankyrine fused protein obtained in Example 4, and the MBP-bound VHH-Jun/MBP-bound ankyrine Fos hetero dimer obtained in Example 9, the MBP bound antibody domain (VHH), which is a single domain protein bound to MBP and represented by Sequence ID No. 2 and the MBP-bound ankyrine represented by Sequence ID No. 6 were evaluated by SPR (manufactured by BIAcore). As a substrate, CM5 (manufactured by BIAcore) is used. MBP is immobilized onto the substrate in accordance with the method recommended by the manufacturer. The MBP immobilized chip thus obtained is subjected to evaluation under the conditions: running Buffer: 0.1% Tween 20/PBS, flow rate: 20 μL/min, and temperature: 25° C. […] The capturing molecule according to the present invention has a high binding ability, compared to the capturing molecule known in the art binding to a target substance at a single epitope (or single site).
MBP-bound VHH-Jun fusion protein and MBP-bound peptide-Fos fusion protein hetero dimer obtained in Example 14 was evaluated for SPR (manufactured by BIAcore) in the same manner as in Example 10.

| Binder | Kd [1] | Kd [2] |
| --- | --- | --- |
| B1 | 1 nM |  |
| B2 |  | 10 nM |
| B3 | 1000 nM |  |
